Measured values from publication PMC3549248, “Charcot–Marie–Tooth type 2B disease-causing RAB7A mutant proteins show altered interaction with the neuronal intermediate filament peripherin” (Acta Neuropathologica, 2012).

Legend:
[1] = molecular target: T1, His-tagged RAB7A K157N (UniProt P18067 1-207, K157N); assay: pull-down; 20 μg purified His-tagged RAB7A bound to NiNTA resin, incubated with Neuro2A cell extracts at 4 °C for 1 h; blot for peripherin; conditions: one partner purified
T1 construct: RAB7A with a CMT2B disease mutation, from E. coli; The pull-down text says 'the CMT2B RAB7A mutants'; also called CMT2B RAB7A mutant K157 N

[2] = molecular target: T2, His-tagged RAB7A Q67L (UniProt P18067 1-207, Q67L); assay: as above; conditions: one partner purified
T2 construct: RAB7A constitutively active mutant, from E. coli; also called constitutively active RAB7A Q67L mutant

[3] = molecular target: T3, His-tagged RAB7A V162M (UniProt P18067 1-207, V162M); assay: as above; conditions: one partner purified
T3 construct: RAB7A with a CMT2B disease mutation, from E. coli; The pull-down text says 'the CMT2B RAB7A mutants'; also called CMT2B RAB7A mutant V162 M

[4] = molecular target: T4, His-tagged RAB7A L129F (UniProt P18067 1-207, L129F); assay: as above; conditions: one partner purified
T4 construct: RAB7A with a CMT2B disease mutation, from E. coli; The pull-down text says 'the CMT2B RAB7A mutants'; also called CMT2B RAB7A mutant L129F

[5] = molecular target: T5, His-tagged RAB7A N161T (UniProt P18067 1-207, N161T); assay: as above; conditions: one partner purified
T5 construct: RAB7A with a CMT2B disease mutation, from E. coli; The pull-down text says 'the CMT2B RAB7A mutants'; also called CMT2B RAB7A mutant N161T

[6] = molecular target: T6, HA-tagged RAB7A K157N (UniProt P18067 1-207, K157N); assay: co-IP; Neuro2A cells transfected with HA- or MYC-tagged RAB7A; RIPA lysate; anti-HA or anti-MYC resin 1 h at 4 °C; blot for endogenous peripherin; conditions: partners not purified
T6 construct: RAB7A with a CMT2B disease mutation; plasmid described previously; also called disease-causing mutant; source: Neuro2A or PC12 cells, transfected, in lysate

[7] = molecular target: T7, HA-tagged RAB7A L129F (UniProt P18067 1-207, L129F); assay: as above; conditions: partners not purified
T7 construct: RAB7A with a CMT2B disease mutation; plasmid described previously; also called disease-causing mutant; source: Neuro2A or PC12 cells, transfected, in lysate

[8] = molecular target: T8, HA-tagged RAB7A N161T (UniProt P18067 1-207, N161T); assay: as above; conditions: partners not purified
T8 construct: RAB7A with a CMT2B disease mutation; plasmid described previously; also called disease-causing mutant; source: Neuro2A or PC12 cells, transfected, in lysate

[9] = molecular target: T9, HA-tagged RAB7A V162M (UniProt P18067 1-207, V162M); assay: as above; conditions: partners not purified
T9 construct: RAB7A with a CMT2B disease mutation; plasmid described previously; also called disease-causing mutant; source: Neuro2A or PC12 cells, transfected, in lysate

[10] = molecular target: T10, pGADT7Rec-peripherin, P41219; assay: yeast two-hybrid β-galactosidase liquid assay; conditions: chain shown with the change; ONPG as substrate; parent: est. 80; read off a plot
T10 chain: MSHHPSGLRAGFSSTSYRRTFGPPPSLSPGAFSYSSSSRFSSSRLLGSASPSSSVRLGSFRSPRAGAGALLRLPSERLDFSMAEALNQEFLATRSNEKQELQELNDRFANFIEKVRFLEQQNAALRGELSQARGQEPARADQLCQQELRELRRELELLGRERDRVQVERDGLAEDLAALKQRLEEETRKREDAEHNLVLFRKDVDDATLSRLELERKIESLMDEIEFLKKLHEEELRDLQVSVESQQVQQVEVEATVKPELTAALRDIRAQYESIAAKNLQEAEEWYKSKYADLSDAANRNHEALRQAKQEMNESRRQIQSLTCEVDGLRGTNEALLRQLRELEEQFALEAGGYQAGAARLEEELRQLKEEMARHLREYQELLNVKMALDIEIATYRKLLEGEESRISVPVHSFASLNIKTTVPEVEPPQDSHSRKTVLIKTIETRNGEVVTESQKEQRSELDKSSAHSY

B1: peripherin (endogenous, Neuro2A cells) (natural protein, mouse (endogenous in Neuro2A), UniProt P15331 1-475, looked up)
chain: MPSSASMSHHHSSGLRSSISSTSYRRTFGPPPSLSPGAFSYSSSSRFSSSRLLGSGSPSSSARLGSFRAPRAGALRLPSERLDFSMAEALNQEFLATRSNEKQELQELNDRFANFIEKVRFLEQQNAALRGELSQARGQEPARADQLCQQELRELRRELELLGRERDRVQVERDGLAEDLAALKQRLEEETRKREDAEHNLVLFRKDVDDATLSRLELERKIESLMDEIEFLKKLHEEELRDLQVSVESQQVQQVEVEATVKPELTAALRDIRAQYENIAAKNLQEAEEWYKSKYADLSDAANRNHEALRQAKQEMNESRRQIQSLTCEVDGLRGTNEALLRQLRELEEQFALEAGGYQAGAARLEEELRQLKEEMARHLREYQELLNVKMALDIEIATYRKLLEGEESRISVPVHSFASLSLKTTVPEMEPLQDSHSKKMVLIRTIETRDGEKVVTESQKEQHSDLDKSSIHSY
notes: peripherin endogenous in mouse Neuro2A neuroblastoma cells, detected with anti-peripherin antibodies; main form of 58 kDa (Per-58); also called Per-58; source: endogenous, Neuro2A lysate
pulled-down peripherin relative to RAB7A wt [1]: 2 fold of RAB7A wt
pulled-down peripherin relative to RAB7A wt [2]: 2 fold of RAB7A wt
pulled-down peripherin relative to RAB7A wt [3]: 2 fold of RAB7A wt
pulled-down peripherin relative to RAB7A wt [4]: 2 fold of RAB7A wt
pulled-down peripherin relative to RAB7A wt [5]: 2 fold of RAB7A wt
co-immunoprecipitated peripherin relative to RAB7A wt [6]: ~60 % more than RAB7A wt
co-immunoprecipitated peripherin relative to RAB7A wt [7]: ~60 % more than RAB7A wt
co-immunoprecipitated peripherin relative to RAB7A wt [8]: ~60 % more than RAB7A wt
co-immunoprecipitated peripherin relative to RAB7A wt [9]: ~60 % more than RAB7A wt

B2: pGBKT7-RAB7A wt, P18067 V162M (protein)
chain: MTSRKKVLLKVIILGDSGVGKTSLMNQYVNKKFSNQYKATIGADFLTKEVMVDDRLVTMQIWDTAGQERFQSLGVAFYRGADCCVLVFDVTAPNTFKTLDSWRDEFLIQASPRDPENFPFVVLGNKIDLENRQVATKRAQAWCYSKNNIPYFETSAKEAINMEQAFQTIARNALKQETEVELYNEFPEPIKLDKNDRAKTSAESCSC
response (relative units) [10]: 99

B3: pGBKT7-RAB7A wt, P18067 N161T (protein)
chain: MTSRKKVLLKVIILGDSGVGKTSLMNQYVNKKFSNQYKATIGADFLTKEVMVDDRLVTMQIWDTAGQERFQSLGVAFYRGADCCVLVFDVTAPNTFKTLDSWRDEFLIQASPRDPENFPFVVLGNKIDLENRQVATKRAQAWCYSKNNIPYFETSAKEAITVEQAFQTIARNALKQETEVELYNEFPEPIKLDKNDRAKTSAESCSC
response (relative units) [10]: 102

B4: pGBKT7-RAB7A wt, P18067 K157N (protein)
chain: MTSRKKVLLKVIILGDSGVGKTSLMNQYVNKKFSNQYKATIGADFLTKEVMVDDRLVTMQIWDTAGQERFQSLGVAFYRGADCCVLVFDVTAPNTFKTLDSWRDEFLIQASPRDPENFPFVVLGNKIDLENRQVATKRAQAWCYSKNNIPYFETSANEAINVEQAFQTIARNALKQETEVELYNEFPEPIKLDKNDRAKTSAESCSC
response (relative units) [10]: 98

B5: pGBKT7-RAB7A wt, P18067 T22N (protein)
chain: MTSRKKVLLKVIILGDSGVGKNSLMNQYVNKKFSNQYKATIGADFLTKEVMVDDRLVTMQIWDTAGQERFQSLGVAFYRGADCCVLVFDVTAPNTFKTLDSWRDEFLIQASPRDPENFPFVVLGNKIDLENRQVATKRAQAWCYSKNNIPYFETSAKEAINVEQAFQTIARNALKQETEVELYNEFPEPIKLDKNDRAKTSAESCSC
response (relative units) [10]: 115
